In the assay the target is T1, interferon-gamma receptor subunit 2 (IFN-γR2) (UniProt P38484 28-247, limits assumed).
T1 construct: Soluble purified protein (crystallised; analyte in SPR)
T1 sequence (looked up): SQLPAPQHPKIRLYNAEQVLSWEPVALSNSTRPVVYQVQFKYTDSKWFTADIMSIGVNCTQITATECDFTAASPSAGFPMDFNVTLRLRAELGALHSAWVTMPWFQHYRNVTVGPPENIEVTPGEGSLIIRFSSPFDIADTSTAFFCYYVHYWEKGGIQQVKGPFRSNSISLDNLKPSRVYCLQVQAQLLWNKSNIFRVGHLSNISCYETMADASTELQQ
Description: SPR (Biacore T100, equilibrium); IFN-γR2 dilutions over captured IFN-γR1 in the presence of 50 nM mutant IFN-γ. Here is the method:
The structure of the IFN-γ signaling complex as described in Example 2 above provided opportunities to address new questions to further understand IFN-γ signaling and activity. By identifying the shared interactions, previously unknown, at sites IIa/IIb, one now can better understand IFN-γ signaling at each step of complex formation. Since IFN-γ is a dimeric cytokine driving the dimerization of four receptors, further experiments were performed to design and generate variants of IFN-γ to affect one or more of the different signaling intermediates. The design of the partial agonists was achieved by first engineering a version of IFN-γ that abolished binding to IFN-γR2 receptor. Based on the structure described in Example 2, a triple IFN-γ mutant having three amino acid substitutions K74A, E75Y, and N83R (See FIG. 3A) was designed and validated for the loss of measurable binding to IFN-γR2 as determined by surface plasmon resonance (FIGS. 3B-3D). Without being bound to any particular theory, several other mutations or combinations thereof of the IFN-γR2 binding site amino acids of IFN-γ as indicated in the crystal structure (FIG. 2), either alone or in combination with mutations within the IFN-γR1 binding site, could also result in similar effects on IFN-γR2 binding. […]
On the technique in general: Surface plasmon resonance follows binding to a sensor surface in real time, without labels.

Consider one molecule from US20210309707A1 (Stanford University, published 2021).

B1: triple IFN-γ mutant having three amino acid substitutions K74A, E75Y, and N83R (ligand)
chain: QDPYVKEAENLKKYFNAGHSDVADNGTLFLGILKNWKEESDRKIMQSQIVSFYFKLFKNFKDDQSIQKSVETIAYDMNVKFFRSNKKKRDDFEKLTNYSVTDLNVQRKAIHELIQVMAELSPAAKTGKRKRSQ
notes: also called IFN-γ (K74A/E75Y/N75R); IFN-γK74A/E75Y/N83A
In the case of B1, the binding result is “no binding”.
